In paper PMC12209172, “Poly(ADP-ribose)polymerase 2 is zinc-dependent enzyme and nucleosome reorganizer” (Cellular and Molecular Life Sciences: CMLS, 2025):

Key:
NP nucleosomes = target: T1, NP nucleosomes (Homo sapiens, UniProt Q9UGN5); assay: EMSA of WGR domain-nucleosome complexes (0.7% agarose gel); type: binding, chicken; details: no divalent cations or 2 mM Zn2+
T1 construct: WGR domain of PARP2 (residues 77–220) into pET-15b-TEV expression vector; 6xHis (pET-15b-TEV) (N, cleaved yes); made in house; host or cells: Escherichia coli Rosetta2 (DE3) pLysS (WGR)
Protocol: Sample preparation for EMSA was the same as for spFRET microscopy, although a slightly higher concentration of nucleosomes (2–3 nM) was used. […] Electrophoresis was performed under native conditions at 140 V, + 4 °C for ∼1.5 h. The gels were scanned using Amersham Typhoon RGB imager (Cytiva, Sweden). Fluorescence was excited in the gel at the 532 nm wavelength and recorded in the 570–610 nm (Cy3 signal) and 650–700 nm (FRET signal of Cy5) spectral regions. The resulting images were obtained in green (Cy3 signal) and red (FRET signal of Cy5) colors and merged.
Fig. 3 WGR domain of PARP2 binds zinc ions and reorganizes nucleosome structure. (a) A model of Zn^2+ binding to the WGR domain created on the basis of the PDB structure 6F5B. Two putative binding sites are shown. N- and C-terminal ends of the WGR domain are indicated. The numbering of the residues corresponds to the numbering of the complete PARP2 sequence. (b) CD spectra of the WGR domain (60 µM) in a buffer containing no divalent cations (Me^2+) or 0.5 mM Zn^2+ ions. (c) Content of canonical types of secondary structures in the WGR domain of PARP2 according to the analysis of CD spectra of the WGR domain measured in the absence or presence of 0.5 mM Zn^2+ ions. (d) Changes in the fluorescence spectra of tryptophan residues 148, 151 and 188 of the WGR domain (5 µM) at different concentrations of Zn^2+ ions. […]

Nd nucleosomes = target: T2, Nd nucleosomes (Homo sapiens, UniProt Q9UGN5); assay: Fluorescence microscopy of Nd nucleosomes binding to His-tagged WGR immobilized on Ni-NTA beads; design: species or system chicken; details: beads with immobilized His-tagged WGR vs without
T2 construct: WGR domain of PARP2 (residues 77–220) into pET-15b-TEV expression vector; made in house; host or cells: Escherichia coli Rosetta2 (DE3) pLysS
Protocol: The binding of nucleosomes to the WGR domain was confirmed after immobilization of the protein containing His-tag on the surface of Ni-NTA beads using fluorescence microscopy (Figure S6).
Figure S6. Confocal fluorescence (a, c, e) and transmitted-light (b, d, f) imaging of Ni-NTA beads with (a, b, e, f) or without
(c, d) immobilized 6 ×His-WGR. The beads were additionally incubated with Nd nucleosomes (a, b, c, d). The parameters of
measurements and intensity scales in fluorescent images(a, c, e)are the same. […]

B1: WGR domain: recombinant WGR domain of PARP2 (residues 77–220) expressed in Escherichia coli (protein, UniProt O88554 77-220, looked up, fragment)
chain: ECAAKLGKAHVYCEGDDVYDVMLNQTNLQFNNNKYYLIQLLEDDAQRNFSVWMRWGRVGKTGQHSLVTCSGDLNKAKEIFQKKFLDKTKNNWEDRENFEKVPGKYDMLQMDYAASTQDESKTKEEETLKPESQLDLRVQELLKL
modifications: WGR domain
notes: recombinant WGR domain of PARP2 (residues 77–220) expressed in Escherichia coli
**Q.** How did the “binding of the WGR domain to nucleosomes” value (NP nucleosomes) turn out when B1 was run?
**A.** binds to nucleosomes in the presence and absence of Zn^2+ ions

**Q.** And the “binding of Nd nucleosomes to Ni-NTA beads” value (Nd nucleosomes)?
**A.** strongly increased
